Numbering of substitutions follows the chain as printed.
T1: cyno TREM-1 (cynomolgus monkey, UniProt A0A2K5VHG8 21-233)
T1 sequence: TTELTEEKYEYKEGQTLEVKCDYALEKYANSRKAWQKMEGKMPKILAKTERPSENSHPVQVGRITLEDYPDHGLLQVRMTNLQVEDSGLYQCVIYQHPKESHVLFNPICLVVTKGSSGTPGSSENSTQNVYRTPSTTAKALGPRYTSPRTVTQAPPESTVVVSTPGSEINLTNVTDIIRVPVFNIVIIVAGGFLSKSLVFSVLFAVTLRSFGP

T2: cyno TREM-1-His protein (cynomolgus monkey, UniProt A0A2K5VHG8 21-204)
T2 construct: extracellular domain; Soluble analyte of the Octet assay; not shown: His tag
T2 sequence: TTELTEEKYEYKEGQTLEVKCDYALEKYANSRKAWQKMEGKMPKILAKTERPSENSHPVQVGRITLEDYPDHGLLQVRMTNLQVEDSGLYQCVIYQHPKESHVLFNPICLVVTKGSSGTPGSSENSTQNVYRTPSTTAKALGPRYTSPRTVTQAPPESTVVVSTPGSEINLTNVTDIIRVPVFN

B1: 66B8 (antibody, V domains shown)
VH: QVQLVQSGAEVKKPGASVKVSCKASGYTFTGYYMHWVRQAPGQGLEWMGWFKPNSGVTNYAQKFQGRVTMSRDTSISTAYMELSSLRSDDTAVYYCARAGYSTSWKDWFDPWGQGTLVTVSS
VL: DIQMTQFPSSVSASVGDRVTITCRASQGISRWLAWYQQKQGKAPKLLIYMVSSLQSGVPSRFSGSGSGTDFTLTISSLQPEDFATYYCQQSHNFPITFGQGTRLDIK
B2: 30H2 (antibody, V domains shown)
VH: EVQVLESGGGLVQPGESLRLSCTASGFTFNAYAMSWVRQAPGKGLEWVSTISGSGSTTYYADSVKGRFTISRDNSKNTLDLQMNSLRAADTAVYYCAKVAGSNFFFDHWGQGTLVTVSS
VL: EIVMTQSPATLSVSPGERATLSCRASQSINSNLAWYQQKPGQAPRLLIYGAYTRATGIPDRFSGSGSGTEFTLTISSLQSEDFAVYYCQEFIMWPPWTFGLGTQVEIK
notes: also called 19330
B3: 46H7 (antibody, V domains shown)
VH: EVQLLESGGGMVQPGGSLRLSCAVSGFTFSRYAMSWVRQAPGKGLEWVSEMRGSSGSTYYADSVKGRFTISRDNSKNTLYLQMNSLRVEDTAIYYCAKEFSSNSLFDYWGQGTLVTVSS
VL: B2 VL with I29V, Q42R, Y52S, D60A, E90Q, I92Y, M93N, L101Q, Q104K
B4: 49A2 (antibody, V domains shown)
VH: EVQLVESGGGLVQPGGSLRLSCAASGFTFSSNWMSWVRQAPGKGLDWMASMKQDGSEIYYVDSVKGRFTISRDNAKNSLHLQMNSLRAEDTAVYYCVRGGWRFESWGQGALVTVSS
VL: EIVMTQSPATLSVSPGERATLSCRASQSVSSNLAWYQQKSGQAPRLLIYGASIRATGIPARVSGSGSGTEFTFTISSLQSEDFAVYYCQQYKNWPLTLGGGTKVEIK
notes: also called 19333
B5: 57C10 (antibody, V domains shown)
VH: QVQLVQSGAEVKKPGASVKVSCKASGYTFTRYDINWVRQATGQGLEWMGWLNPNSGNTGQTQKFRGRVTMTRNTSINTAYMELSSLRSEDTAVYYCARGGYTSAWRWYFDLWGRGTLVTVSS
VL: DIQMTQSPSSLSASVGDRVTITCQASQDINNHLNWYQQKPGKAPKLLIYDVSNLETGVPSSFSGSGCGTDFTFTISSLQPEDIATYFCQQYDKLPLTFGGGTKVEIE
B6: 61B12 (antibody, V domains shown)
VH: QVQLVQSGAEVTKPGASVKVSCKASGYTFTRYDINWVRQATGQGLEWMGWMNPNSGNSGSVQKFRGRVTMTRNTSITTVYMELSSLRSDDTAVYYCARGGISSSWHWAFDIWGQGTMVTVSS
VL: B5 VL with D50G, V51A, S52Y, N53T, S61R, C67S, F87Y, E107K
B7: 63F8 (antibody, V domains shown)
VH: QVQLVQSGAEVKKPGASVKVSCKASGYTFTSYDINWVRQATGQGLEWMGRMNPKSGNAGYVQNFRGRVTMTRNTSISTAYMELSSLRSEDTAVYYCARGGRTSIWSFVFDYWGQGTLVTVSS
VL: B5 VL with N30S, N31K, V51T, S61R, C67S, F87N, E107K
B8: 61G5 (antibody, V domains shown)
VH: QVQLVQSGAEVKKPGASVKVSCKASGYTFTSYDINWVRQATGQGLEWMGWMNPNSGNSGSVKKFRDRVTMTRNTSISTAYMELSSLRSEDTAVYYCVRLIGYSSAWKWSFQHWGQGTLVTVSS
VL: DIQMTQSPSSLSASVGDRVTITCQASRDISKYLNWYQQKPGKAPKLQIYDASNLETGVPSRFSGSGSGTDFTFTISSLQPEDIATYYCQHYDNIPITFGQGTRLEIK
B9: 44A5 (antibody, V domains shown)
VH: EVQLLESGGGLVQPGGSLRLSCAASGFTFSTYAMNWVRQAPGKGLEWVSTVSGSGRPTYYADSVKGRFTISRDNSKNTLYLQMNSLRAEDTAVYYCAKAYYSNYLFDYWGQGTLVTVSS
VL: EIVMTQSPAILSVSPGERATLSCRASQSVSSNLAWYQQKPGQAPRLLIYGASTRATGVPARFSGGGSGTDFTLTISSLQSEDFAVYYCQHCKTWPPLTFGGGTKVDLK
B10: 64D7 (antibody, V domains shown)
VH: QVQLVQSGAEVKKPGASVKVSCKASGYTFTSYDINWVRQATGQGLEWMGWMNPNRGNTGYVKKFQGRVTMTRNTSISTAYMELSSLRSEDTAVYYCARRRAVYRSSWEWYFDLWGRGTLVTVSS
VL: DTQMTQSPSSLSASEGDRVTITCQASQDIFNDLNWYQEKPGKAPKLLIYHASNLETGVPSRFSGSGSGTDYTFTISSLQPEDIATYYCQQYGNLPLTFGGGTKVEIK
B11: 50A12 (antibody, V domains shown)
VH: EVQLVESGGGLVQPGGSLRLSCAASGFTFSSYWMSWVRQAPGKGLEWVANIKQDGSEEYYVDSVKGRFTISRDNAKNSLFLQMNSLRAEDTAVYYCARDYGDSFDYWGQGTLVTVSS
VL: DIQMTQSPSSVSASVGDRVTITCRASQGIRKWLAWYQQKPGRAPKLLIYAASRLQSGVPSRFSGSGSGTDFTLTISSLRPEDFATYYCLQAHGFPWTFGQGTKVEIK
B12: 3E12 (antibody, V domains shown)
VH: QVQLVQSGAEVKKPGASVKVSCKASGYTFNGYYIHWVRQAPGQGLEWMGWLNPNSGGANYAQKFQGWVTMTRDTSISTAYMELSRLTSDDTAVYYCARDQRKTTVTPFEYWGQGTLVTVSS
VL: SYELTQPPSVSVSPGQTASITCSGDKLGERNVCWYQLKPGQSPILVIYQDNKRPSGIPERFSGSKSGNTAILTISGTQAMDEADYYCQAWDRNVVFGGGTKLTVL
B13: 57F5 (antibody, V domains shown)
VH: EVQLLESGGGLVQPGGSLRLSCAASGFTFSSYAMTWVRQAPGRGLQWVSTISGSGSNTYYADSVKGRFTISRDNSKNTLYLQMSSLRAEDTAVYYCAKEGGSNRYFHHWGQGTLVTISS
VL: DIQMTQSPSSLSASVGDRVTITCRASQSISSNLNWYQQKPGKAPKLLISAASNLQSGVPSRFSGSESGTDFTLTISSLQSEDFATYYCQQSDSLPLTFGGGTKVEIN
B14: 34D1 (antibody, V domains shown)
VH: B5 VH with L51M, T58S, Q60S, T61V, N77H, T78I, A104S
VL: B8 VL with T20N, R27Q, S30R, Y32H, K45N, Q47L, S52A, D70A, D92A, I94L

Each binder was assayed against T1, cyno TREM-1 (assay: cell-based or functional assay).

Ab IC50-Cyno PBMC (Trial 1), TNFα release induced by cyno PGLYRP1/PGN [nM]	Ab IC50-Cyno PBMC (Trial 2), TNFα release induced by cyno PGLYRP1/PGN [nM]	Binder
0.114	0.0232	B1
3.77		B2
0.0951	0.0097	B3
0.732	0.266	B4
0.154	0.0284	B5
0.0469	0.0174	B6
0.0226	0.0161	B7
	2.34	B8
0.0579	0.0091	B9
6.94	0.78	B10
2		B11

The binders below were run against T2, cyno TREM-1-His protein (assay: BLI (Octet HTX), antibody captured on anti-human Fc sensor, cyno TREM-1-His as analyte, 1:1 model).
Protocol: Briefly, TREM-1 hybridoma supernatants normalized to 10 μg/mL in DMEM null media were prepared by diluting 1:10 in OCTET® assay buffer (10 mM Tris, 0.1% Triton X-100, 150 mM NaCl, 1 mM CaCl₂), 0.1 mg/mL BSA, at pH 7.6) to a final test concentration of 1 μg/mL. Amine reactive second-generation AR2G Biosensors (Molecular Devices) were pre-incubated in 200 μL nanopore water for a minimum of 10 minutes at room temperature before use. The AR2G Biosensors were then activated for 5 minutes in a solution of 20 mM EDC (1-Ethyl-3-[3-dimethylaminopropyl]carbodiimide hydrochloride) (ForteBio) pre-mixed with 10 mM NHS (N-hydroxysulfosuccinimide) (ForteBio) in nanopore water. An in-house generated mouse anti-human Fc monoclonal antibody was coupled to the AR2G Biosensors at 10 μg/mL in 10 mM sodium acetate buffer at pH 5 for 5 minutes, quenched with 1M ethanolamine at pH 8.5 for 5 minutes, and then used to capture antibody from solution. The TREM-1 test antibodies were loaded onto the Biosensors for 5 minutes, and baseline measurements were taken for 1 minute. […] The association of recombinant human TREM-1 with the antibody-loaded sensor was measured for 5 minutes, followed by dissociation in OCTET® buffer for 10 minutes. Biosensors were then regenerated with 10 mM glycine at pH 1.7, reloaded with the same TREM-1 antibodies on the same sensors for 5 minutes, and the same method was used to measure association and dissociation of cyno TREM-1-His protein. Data was referenced using a 0 nM analyte reference sensor. Kinetic analysis was performed using a 1:1 Langmuir model with mass transfer in Genedata Screener software.

Kd [nM]	Binder
1.64	B1
5.7	B2
1.8	B12
< 0.29	B13
1.87	B4
1.28	B5
4.97	B14
1.27	B6
0.856	B7
1.31	B8
2.02	B9
0.68	B10
6.42	B11
